{"source": "patent US20210347865A1", "about": "(STATEN BIOTECHNOLOGY B V, published 2021)", "binders": {"B1": {"name": "29B03 IgG (antibody, V domains shown)", "VH": "QLQLVESGGGLVQPGGSLRLSCAASGFTFGTYSMRWVRQVPRKALEWVSSISTDGGGTAYRDSVKGRFTISRDNAKNTLYLQMNNLKPEDTAIYYCVIAGYSDWGQGTQVTVSS", "VL": "DVVLTQTPGSLSVVPGESASISCKAGQNLVHPDGKTYLYWLLQKPGQSPQRLIYQVSNRDSGVPDRFTGSGSGTDFTLKISGVKVEDAGVYYCAQGTYWPKTFGQGTKLEIK"}, "B2": {"name": "29A06-Nhance antibody (antibody, human IgG1, kappa, V domains shown)", "VH": "QLQLVESGGGLVQPGGSLRLSCAASGFTFGTYSMRWVRQVPRKALEWVSSISTDGGGTAYRDSVKGRFTISRDNAKNTLYLQMNNLKPEDTAIYYCVIAGYSDWGQGTQVTVSS", "VL": "DVVLTQTPGSLSVVPGESASISCKASQNLVHSNGKTYLYWLLQKPGQSPQRLIYQVSNRGSEVPDRFTGSGSGTDFTLKISGVKAEDAGVYYCAQGTYWPKTFGQGTKLEIKR", "notes": "IgG1 heavy chain with the Nhance Fc variant, and a kappa light chain; This is probably a print error; also called mAb 29A6-Nhance; 29A6-Nhance"}}, "key": {"[1]": {"target": "T1, native human ApoC3 (human, UniProt P02656 21-99, biotinylated in the captured-antigen assays (Tables 6 and 8); sites not stated)", "T1 construct": "also called nhuApoC3; native huApoC3", "T1 sequence (P02656 21-99)": "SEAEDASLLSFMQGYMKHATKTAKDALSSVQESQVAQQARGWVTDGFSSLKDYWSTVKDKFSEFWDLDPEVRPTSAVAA", "assay": "SPR, biotinylated antigen captured on streptavidin chip, IgG as analyte, pH 7.4; footnote: n/a: not applicable; below the limits of detection kd: 1E-06 1/s"}, "[2]": {"target": "T2, recombinant cynomolgus ApoC3 (cynomolgus monkey, UniProt P18659 21-99, biotinylated in the captured-antigen assays (Tables 6 and 8); sites not stated)", "T2 construct": "No cleavage site is stated, so none is applied; also called rcyApoC3; bio-rcyApoC3", "T2 sequence (P18659 21-99 limits assumed)": "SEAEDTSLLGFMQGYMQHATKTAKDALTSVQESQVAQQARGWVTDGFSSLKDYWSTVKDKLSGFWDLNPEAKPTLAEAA", "assay": "SPR, IgG captured via anti-human Fc, ApoC3 analyte 100 nM", "procedure": "(§1) Immobilization was performed in accordance with the method provided by Biacore in the NHS/EDC kit (Biacore AB). Briefly, after activation of the chip, a solution of 30 μg/ml anti-human Fcγ antibody in 10 mM acetate buffer with pH 5.0 was injected until the surface density reached approximately 10,000 RU. […] Following antibody capture, 100 μl of HBS-EP buffer was injected and passed through the flow cells at 30 μl/min. To bind target, 60 μl of 400 nM, 200 nM, 100 nM, or 50 nM ApoC3 protein in HBS-EP buffer was injected. An off-rate wash was performed by injection of HBS-EP buffer at 30 μl/min for 5 min. After dissociation, the flow cell surfaces were regenerated by injecting 20 μl of 10 mM glycine at pH 1.5.\n(§2) The resulting sensorgrams were analysed with BIAevaluation 4.1 software using the Langmuir 1:1 binding model to derive binding kinetics. Data was zero adjusted and the reference cell sensorgrams were subtracted. A no-analyte blank assay was used for double referencing the sensorgrams corresponding to nhuApoC3 and rcyApoC3 injections. The dissociation and association phase sensorgrams were fitted separately for the 4 different concentration curves. Sensorgrams were excluded from the fitting if maximum RU values were below the limit of detection (i.e., <5 RU). SPR signals were too low to calculate kinetic parameters for […]."}, "[3]": {"target": "T1, native human ApoC3", "assay": "SPR, IgG captured via anti-human Fc, ApoC3 analyte 100 nM", "procedure": "as §1, §2"}, "[4]": {"target": "T2, recombinant cynomolgus ApoC3", "assay": "SPR, IgG captured via anti-human Fc, ApoC3 analyte 50 nM", "procedure": "as §1, §2"}, "[5]": {"target": "T2, recombinant cynomolgus ApoC3", "assay": "SPR, IgG captured via anti-human Fc, ApoC3 analyte 200 nM", "procedure": "as §1, §2"}, "[6]": {"target": "T1, native human ApoC3", "assay": "SPR, IgG captured via anti-human Fc, ApoC3 analyte 200 nM", "procedure": "as §1, §2"}, "[7]": {"target": "T2, recombinant cynomolgus ApoC3", "assay": "SPR, IgG captured via anti-human Fc, ApoC3 analyte 400 nM", "procedure": "as §1, §2"}, "[8]": {"target": "T1, native human ApoC3", "assay": "SPR, IgG captured via anti-human Fc, ApoC3 analyte 400 nM", "procedure": "as §1, §2"}, "[9]": {"target": "T2, recombinant cynomolgus ApoC3", "assay": "SPR, biotinylated antigen captured on streptavidin chip, IgG as analyte, pH 7.4"}, "[10]": {"target": "T1, native human ApoC3", "assay": "SPR, antigen immobilized on CM5 chip, IgG as analyte, pH 7.4; footnote: n/a: not applicable; below the limits of detection kd: 1E-06 1/s"}, "[11]": {"target": "T2, recombinant cynomolgus ApoC3", "assay": "SPR, antigen immobilized on CM5 chip, IgG as analyte, pH 7.4"}, "[12]": {"target": "T2, recombinant cynomolgus ApoC3", "assay": "SPR, Table 9 ('29A6-Nhance as the captured antigen'), analyte 0.78-25 nM, pH 7.4", "procedure": "(§3) For the captured antigen approach, biotinylated native human ApoC3 was captured on a streptavidin coated chip (GE Healthcare #BR100032) at pH 7.4. In accordance with the methods provided by Biacore, 20 μl of 10 μg/ml biotinylated human ApoC3 was injected until the surface density reached approximately 500 RU. SPR methods and data analysis were followed as described in Example 2.1. SPR was also performed using these methods with the 29A06-Nhance antibody as the captured antigen. The 29A06-Nhance antibody comprises the heavy chain amino acid sequence set forth in SEQ ID NO: 38 and the light chain amino acid sequence set forth in SEQ ID NO: 50.\n(§4) Similarly to the immobilized antigen approach, most of the clones had high affinity towards the human target and low off-rate values."}, "[13]": {"target": "T1, native human ApoC3", "assay": "SPR, Table 9 ('29A6-Nhance as the captured antigen'), analyte 0.78-25 nM, pH 7.4", "procedure": "as §3, §4"}}}
{"binder": "B1", "values": [{"measurement": "koff", "setting": "[1]", "result": "< 1e-06", "unit": "s⁻¹"}, {"measurement": "Kd", "setting": "[2]", "result": 385, "unit": "nM"}, {"measurement": "koff", "setting": "[2]", "result": 0.014, "unit": "s⁻¹"}, {"measurement": "kon", "setting": "[2]", "result": 36300, "unit": "M⁻¹ s⁻¹"}, {"measurement": "Kd", "setting": "[3]", "result": 0.336, "unit": "nM"}, {"measurement": "koff", "setting": "[3]", "result": "8e-05", "unit": "s⁻¹"}, {"measurement": "kon", "setting": "[3]", "result": 238000, "unit": "M⁻¹ s⁻¹"}, {"measurement": "Kd", "setting": "[4]", "result": 190, "unit": "nM"}, {"measurement": "koff", "setting": "[4]", "result": 0.0127, "unit": "s⁻¹"}, {"measurement": "kon", "setting": "[4]", "result": 66800, "unit": "M⁻¹ s⁻¹"}, {"measurement": "Kd", "setting": "[5]", "result": 297, "unit": "nM"}, {"measurement": "koff", "setting": "[5]", "result": 0.0137, "unit": "s⁻¹"}, {"measurement": "kon", "setting": "[5]", "result": 46100, "unit": "M⁻¹ s⁻¹"}, {"measurement": "Kd", "setting": "[6]", "result": 0.35, "unit": "nM"}, {"measurement": "koff", "setting": "[6]", "result": "8.44e-05", "unit": "s⁻¹"}, {"measurement": "kon", "setting": "[6]", "result": 241000, "unit": "M⁻¹ s⁻¹"}, {"measurement": "Kd", "setting": "[7]", "result": 367, "unit": "nM"}, {"measurement": "koff", "setting": "[7]", "result": 0.0145, "unit": "s⁻¹"}, {"measurement": "kon", "setting": "[7]", "result": 39600, "unit": "M⁻¹ s⁻¹"}, {"measurement": "Kd", "setting": "[8]", "result": 0.401, "unit": "nM"}, {"measurement": "koff", "setting": "[8]", "result": "8.63e-05", "unit": "s⁻¹"}, {"measurement": "kon", "setting": "[8]", "result": 215000, "unit": "M⁻¹ s⁻¹"}, {"measurement": "Kd", "setting": "[9]", "result": 0.33, "unit": "nM"}, {"measurement": "koff", "setting": "[9]", "result": 0.000104, "unit": "s⁻¹"}, {"measurement": "kon", "setting": "[9]", "result": 320000, "unit": "M⁻¹ s⁻¹"}, {"measurement": "koff", "setting": "[10]", "result": "< 1e-06", "unit": "s⁻¹"}, {"measurement": "Kd", "setting": "[11]", "result": 0.18, "unit": "nM"}, {"measurement": "koff", "setting": "[11]", "result": "6.7e-05", "unit": "s⁻¹"}, {"measurement": "kon", "setting": "[11]", "result": 380000, "unit": "M⁻¹ s⁻¹"}]}
{"binder": "B2", "values": [{"measurement": "Kd", "setting": "[12]", "result": 0.675, "unit": "nM"}, {"measurement": "Kd", "setting": "[13]", "result": 0.023, "unit": "nM"}, {"measurement": "kon", "setting": "[13]", "result": 770000, "unit": "M⁻¹ s⁻¹"}]}
